Results reported in the supplement of paper PMC6757056.
± gives the standard deviation of the averaged measurements.

B1: library; a variant is named by its letters at N, in order (parent)
chain: GCUGUCACCGGUGCUUGGUACGUUAUAUUCAGCCGGUCUGAUGAGUCUNNNNNNAGACGAAACAGC

How the values were obtained:
(6R,S)-folinic acid [1] = variants of: B1; experiment: FACS-Seq fitted mean relative fluorescence mCherry/BFP without ligand (log10 relative fluorescence); HEK293T overexpressing SLC46A1; higher = higher reporter protein expression; settings: without (6R,S)-folinic acid; ligand present: no
How it was run: (§1)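 HEK293T libraries were made by lentiviral transduction with a ribozyme-switch mCherry reporter and an EF1α-BFP marker, enriched, and incubated with or without ligand for 48 h. Cells were sorted into 6 mCherry/BFP bins, and each bin's genomic DNA was PCR-amplified, barcoded and run on MiSeq. Fluorescence was derived by normal fitting of the bin counts. The fitted log10(mCherry/BFP) mean was scaled to five spiked-in control ribozymes.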

(6R,S)-folinic acid [2] = variants of: B1; experiment: normalized RNA/DNA level without ligand (relative to sTRSVctl = 100) (log10 (% of sTRSVctl)); HEK293T overexpressing SLC46A1; higher = less ribozyme self-cleavage, higher mRNA level; settings: without (6R,S)-folinic acid; ligand present: no
Protocol: (§2)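 Hammerhead (sTRSV) ribozyme switch libraries with a ligand aptamer grafted on stem I and a randomized N4-6 loop II, cloned into the 3' UTR of mCherry and transiently transfected into HEK293T cells; RNA-Seq 72 h post transfection with ligand added 1 h before transfection; RNA read count / plasmid DNA read count normalized to the non-cleaving sTRSVctl (x100), log10; sequences with >100 DNA reads. FACS-Seq: lentiviral library sorted into 6 bins after 48 h ligand, log-normal fit mean of mCherry/BFP scaled to controls. Printed sequences are partial switch sequences.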

(6R,S)-folinic acid [3] = variants of: B1; experiment: FACS-Seq fitted mean relative fluorescence mCherry/BFP with ligand (log10 relative fluorescence); HEK293T overexpressing SLC46A1; ligand concentration (+) FACS-Seq: 6 mM; higher = higher reporter protein expression; settings: with (6R,S)-folinic acid; ligand present: yes
How it was run: as §1

(6R,S)-folinic acid [4] = variants of: B1; experiment: normalized RNA/DNA level with ligand (relative to sTRSVctl = 100) (log10 (% of sTRSVctl)); HEK293T overexpressing SLC46A1; ligand concentration (+) RNA-Seq: 6 mM; higher = less ribozyme self-cleavage, higher mRNA level; settings: with (6R,S)-folinic acid; ligand present: yes
Protocol: as §2

Row | Variant | FACS-Seq fitted mean (log10) ((6R,S)-folinic acid [1]) | normalized RNA/DNA level without ligand (log10) ((6R,S)-folinic acid [2]) | FACS-Seq fitted mean (log10) ((6R,S)-folinic acid [3]) | normalized RNA/DNA level with ligand (log10) ((6R,S)-folinic acid [4])
1 | GCUGUCACCGGUGCUUGGUACGUUAUAUUCAGCCGGUCUGAUGAGUCUGUAAAUAGACGAAACAGC | 0.332 ± 0.13 | 1.971 ± 0.0055 | 0.464 ± 0.033 | 2.003 ± 0.0095
2 | GCUGUCACCGGUGCUUGGUACGUUAUAUUCAGCCGGUCUGAUGAGUCUGAUAGGAGACGAAACAGC | 0.0382 ± 0.037 | 1.921 ± 0.013 | 0.234 ± 0.004 | 2.01 ± 0.022
3 | GCUGUCACCGGUGCUUGGUACGUUAUAUUCAGCCGGUCUGAUGAGUCUCAAGGAAGACGAAACAGC | 0.62 ± 0.052 | 1.981 ± 0.019 | 0.722 ± 0.17 | 1.99 ± 0.052
4 | GCUGUCACCGGUGCUUGGUACGUUAUAUUCAGCCGGUCUGAUGAGUCUAAAGGGAGACGAAACAGC | 0.172 ± 0.033 | 1.671 ± 0.016 | 0.631 ± 0.087 | 1.97 ± 0.049
5 | GCUGUCACCGGUGCUUGGUACGUUAUAUUCAGCCGGUCUGAUGAGUCUACGUAGAGACGAAACAGC | 0.217 ± 0.032 | 1.912 ± 0.0036 | 0.598 ± 0.16 | 1.9927 ± 0.0014
6 | GCUGUCACCGGUGCUUGGUACGUUAUAUUCAGCCGGUCUGAUGAGUCUUGAGUGAGACGAAACAGC | 0.376 ± 0.083 | 1.652 ± 0.011 | 0.652 ± 0.081 | 1.93 ± 0.023
7 | GCUGUCACCGGUGCUUGGUACGUUAUAUUCAGCCGGUCUGAUGAGUCUCAGGCUAGACGAAACAGC | 0.511 ± 0.14 | 2.055 ± 0.0024 | 0.544 ± 0.066 | 2.01 ± 0.036
8 | GCUGUCACCGGUGCUUGGUACGUUAUAUUCAGCCGGUCUGAUGAGUCUAAGUAGAGACGAAACAGC | 0.445 ± 0.099 | 1.89 ± 0.021 | 0.443 ± 0.18 | 1.987 ± 0.018
9 | GCUGUCACCGGUGCUUGGUACGUUAUAUUCAGCCGGUCUGAUGAGUCUGCGAGAAGACGAAACAGC | 0.0695 ± 0.067 | 1.996 ± 0.016 | 0.197 ± 0.13 | 2.03 ± 0.018
10 | GCUGUCACCGGUGCUUGGUACGUUAUAUUCAGCCGGUCUGAUGAGUCUGAUACGAGACGAAACAGC | 0.356 ± 0.069 | 1.9665 ± 0.00032 | 0.274 ± 0.0064 | 2 ± 0.0056
11 | GCUGUCACCGGUGCUUGGUACGUUAUAUUCAGCCGGUCUGAUGAGUCUAUAAGCAGACGAAACAGC | 0.38 ± 0.1 | 2.003 ± 0.0058 | 0.792 ± 0.04 | 2.02 ± 0.042
12 | GCUGUCACCGGUGCUUGGUACGUUAUAUUCAGCCGGUCUGAUGAGUCUUUAUGUAGACGAAACAGC | 0.389 ± 0.12 | 1.919 ± 0.0091 | 0.413 ± 0.13 | 1.987 ± 0.019
13 | GCUGUCACCGGUGCUUGGUACGUUAUAUUCAGCCGGUCUGAUGAGUCUAGAUUCAGACGAAACAGC | 0.551 ± 0.08 | 2.05 ± 0.0077 | 0.54 ± 0.24 | 2.04 ± 0.042
14 | GCUGUCACCGGUGCUUGGUACGUUAUAUUCAGCCGGUCUGAUGAGUCUAGGUUAAGACGAAACAGC | 0.33 ± 0.013 | 1.981 ± 0.0028 | 0.384 ± 0.056 | 1.98 ± 0.04
15 | GCUGUCACCGGUGCUUGGUACGUUAUAUUCAGCCGGUCUGAUGAGUCUACAGUGAGACGAAACAGC | 0.32076 ± 2.8e-05 | 1.732 ± 0.0061 | 0.629 ± 0.16 | 2 ± 0.028
16 | GCUGUCACCGGUGCUUGGUACGUUAUAUUCAGCCGGUCUGAUGAGUCUACUGUGAGACGAAACAGC | 0.5433 ± 0.0045 | 1.853 ± 0.017 | 0.593 ± 0.12 | 2 ± 0.022
17 | GCUGUCACCGGUGCUUGGUACGUUAUAUUCAGCCGGUCUGAUGAGUCUCUUGGAAGACGAAACAGC | 0.658 ± 0.053 | 2.001 ± 0.019 | 0.547 ± 0.15 | 1.99 ± 0.025
18 | GCUGUCACCGGUGCUUGGUACGUUAUAUUCAGCCGGUCUGAUGAGUCUGUUGGAAGACGAAACAGC | 0.594 ± 0.3 | 1.977 ± 0.013 | 0.154 ± 0.35 | 2.02 ± 0.04
19 | GCUGUCACCGGUGCUUGGUACGUUAUAUUCAGCCGGUCUGAUGAGUCUCACGUAAGACGAAACAGC | 0.476 ± 0.1 | 1.989 ± 0.019 | 0.649 ± 0.35 | 2.01 ± 0.025
20 | GCUGUCACCGGUGCUUGGUACGUUAUAUUCAGCCGGUCUGAUGAGUCUAUGCGGAGACGAAACAGC | 0.0258 ± 0.11 | 1.939 ± 0.013 | 0.185 ± 0.22 | 2.02 ± 0.043
21 | GCUGUCACCGGUGCUUGGUACGUUAUAUUCAGCCGGUCUGAUGAGUCUGGACCGAGACGAAACAGC | 0.438 ± 0.24 | 2.065 ± 0.0084 | 0.0255 ± 0.12 | 2.02 ± 0.031
